Values quoted from earlier work, collected in publication PMC7617445.

Target: IL-18 (Homo sapiens) (UniProt Q14116)
Sequence (Q14116 37-193): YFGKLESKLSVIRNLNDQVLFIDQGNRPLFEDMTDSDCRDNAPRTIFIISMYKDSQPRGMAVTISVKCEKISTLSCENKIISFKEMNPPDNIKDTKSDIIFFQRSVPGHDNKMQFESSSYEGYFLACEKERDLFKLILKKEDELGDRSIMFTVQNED

Sequence of IL-18BP (O95998 31-194): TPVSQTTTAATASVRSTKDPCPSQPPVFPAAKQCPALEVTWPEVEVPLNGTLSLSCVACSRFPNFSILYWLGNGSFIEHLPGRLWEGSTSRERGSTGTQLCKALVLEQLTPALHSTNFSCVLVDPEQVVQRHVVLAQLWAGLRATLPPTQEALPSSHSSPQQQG

## IL-18BP (from UniProt O95998)
  Kd: 0.1 nM
